Experimental data from patent publication US5871739.

Molecular target: β-crystallin (containing about 10% βA3 -crystallin)
Test: ELISA of mouse sera in the same manner as in Experimental Example 2; anti-crystallin antibody titer, control group
Conditions: scale: dilution ratio

For “sera of control mice given PBS (Experimental Example 5) (polyclonal serum or antibody)”, the antibody titer was 500.
